Data on three molecules can be found in article PMC7232456, “Loxoscelism: Advances and Challenges in the Design of Antibody Fragments with Therapeutic Potential” (Toxins, 2020).

The target in assay [1] is T1, recombinant SMase D LiD1 from L. intermedia (Loxosceles intermedia, UniProt P0CE81).
T1 construct: also called rLiD1; recombinant sphingomyelinase D
In words: ELISA. The following applies: both partners purified. On the technique in general: ELISA stands for enzyme-linked immunosorbent assay.

Assay [2] has as its target T1, recombinant SMase D LiD1 from L. …. The experiment in a line: SPR. The following applies: both partners purified.

The term Kd denotes the constant that tells how readily two partners part at equilibrium. The term koff denotes the rate constant with which the complex falls apart. As a reminder, the kon is the rate constant with which the complex forms.

Positions count from the first letter of the chain named.

T1 sequence (P0CE81 27-306): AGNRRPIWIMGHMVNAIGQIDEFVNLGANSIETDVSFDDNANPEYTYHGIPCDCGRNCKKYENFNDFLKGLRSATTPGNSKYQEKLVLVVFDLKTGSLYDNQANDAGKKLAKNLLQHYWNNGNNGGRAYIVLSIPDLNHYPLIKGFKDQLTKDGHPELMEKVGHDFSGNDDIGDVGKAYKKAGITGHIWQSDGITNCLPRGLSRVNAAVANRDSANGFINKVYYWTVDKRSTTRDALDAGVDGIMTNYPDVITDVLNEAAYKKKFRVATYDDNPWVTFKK

B1: scFv15hLi7m (scFv, V domains shown)
VH: QVQLQQSGAEVKKPGASVKVSCKASGYAFSSSWMNWVRQAPGQGLEWMGRIYPGDGDTNYNQKFQGRVTMTRDTSTSTVYMELSSLRSEDTAVYFCARWTYGYSKYYYFDDWGQGTLVTVSS
VL: DIQMTQSPSSLSASVGDRVTITCRASQSLLWNVNENNYLSWYQQKQGKAPKLLIYGASILESGVPSRFSGSGSGTDFTLTISSLQPEDFATYYCQHNHGSFLPYTFGQGTKLEIK
notes: also called second generation of the humanized scFv; monomeric scFv
As for B1, in assay [1], the binding result is on record as “binds”.

B2: scFv5hLi7m (scFv, V domains shown)
VH: B1 VH
VL: B1 VL
notes: also called (scFv5hLi7m)2; dimeric scFv5hLi7m
B2: the binding result in assay [1] is reported as “binds”.

B3: scFv15hLi7 (scFv, V domains shown)
VH: B1 VH with F95Y
VL: B1 VL with Q46P
notes: also called humanized scFv; first generation of the humanized scFv
Regarding B3, in assay [2], the Kd stood at 56.6 nM, the koff was found to be 0.0103 s⁻¹ and the kon stood at 182000 M⁻¹ s⁻¹.
